In patent US20210093714A1, “Combination and method for inhibiting the cancer cells” (NATIONAL TAIWAN UNIVERSITY, priority 2013, published 2021):

Columns and labels:
DAPK = experiment: Western blot of DAPK expression; assay type: cell-based, human
Protocol: (§1) Proteins ([…]) were separated by SDS-PAGE and transferred to a polyvinylidene difluoride membrane (Immobilon-P membrane; Millipore) by electrotransfer. The blot was blocked in a solution of 5% skim milk and 0.1% Tween 20 in PBS. Thereafter, membrane-bound proteins were probed with the following primary antibodies: CCN2, DAPK, phosphorylated ERK, ERK-1, phosphorylated Akt, Akt, TrkA, phosphorylated-Src, Src, b-actin, a-tubulin (Santa Cruz Biotechnology), p-EGFR, and EGFR (Cell Signaling Technology, Danvers, MA, USA). The membrane was washed and then incubated with HRP-conjugated secondary antibodies for 30 min. Enhanced chemiluminescence reagents (Amersham Pharmacia Biotech, Piscataway, N.J., USA) were employed to depict the protein bands on membranes. The light was captured on Kodak X-Omat Blue autoradiography film (PerkinElmer Life Sciences, Boston, Mass., USA).
This embodiment focuses on the downstream signaling in CCN2-induced anoikis. At first, the effect of DAPK which can up-regulate CCN2 played on CCN2 induced anoikis and metastasis inhibition of lung adenocarcinoma cell lineswas observed by RT-PCR, dual luciferase reporter assay and western blot analysis, the results shown in FIGS. 6A to 6C. […] In addition, in the lung adenocarcinoma cell line, CL1-0/siCCN2, DAPK expression is suppressed, and DAPK expression also be suppressed with increasing dose (0 μg, 1μg, 3μg), (as shown on the top right in the FIG. 6C). Therefore, CCN2 induced DAPK expression in time- and dose-dependent manners.

[1] = test system: lung adenocarcinoma cell line, CL1-5; experiment: In vivo anoikis, high-frequency ultrasonic imaging, s.c. CL1-5; details: nude mice, rCCN2 i.p. 1 mg/kg per day, FIG. 5F
From the text: Mice were anesthetized with isoflurane inhalation, and biofluorescence images were photographed with a CCD camera (IVIS; Xenogen Corporation, Caliper Life Sciences, Hopkinton, Mass., USA) at specific times. Imaging times ranged from 1 to 60 s, depending on the amount of fluorescence activity. Biofluorescence from the region of interest (ROI) was defined manually, and the data were expressed as photon flux (photons/s/cm^2/steradian). Background photon flux was defined using an ROI from a mouse that was not given an […]. injection of cancer cells. All biofluorescence data were collected and analyzed using IVIS. Celltracker dye was purchased from Molecular Probes, Invitrogen Corporation.
Next, the effect of rCCN2 on anoikis in the lung adenocarcinoma cell line, CL1-5, (in vivo) was observed by high-frequency ultrasonic imaging, the results shown in FIG. 5F(top right indicated as the amplification view of the yellow squares). In this embodiment, the lung adenocarcinoma cell line, CL1-5, was injected into the s.c. region of nude mice and the mice was treated i.p. either with rCCN2 (1 mg/kg per day) or a control solution (citrate buffer), and anoikis in the lung adenocarcinoma cell line, CL1-5,(in vivo) was observed by high-frequency ultrasonic imaging.

EGFR/c-Cbl complex = target: T1, EGFR/c-Cbl complex (Homo sapiens, UniProt P00533); experiment: Immunoprecipitation/western blot of EGFR/c-Cbl complex formation; assay type: cell-based; details: CL1-5 with MG132; 0 to 60 minutes; FIG. 4D
T1 construct: expressed in transfected cells; host or cells: CL1-5 (EGFR endogenous; HA-c-Cbl transiently transfected)
Protocol: as §1
CCN2 transfectants were seeded overnight and incubated in serum-free media for 24 h. For immunoprecipitations, cells were lysed in an RIPA buffer (150 mM NaCl, 50 mM Tris-base, 5 mM EDTA, 1% NP-40, and 0.25% deoxycholate; pH 7.4). Protein concentrations were determined using the BCA protein assay kit (Pierce, Rockford, Ill., USA). […]

EGFR = experiment: Immunoprecipitation and in vitro binding assay of CCN2 and EGFR; set-up: species or system human; details: A549; FIG. 2C
Protocol: CCN2 transfectants were seeded overnight and incubated in serum-free media for 24 h. For immunoprecipitations, cells were lysed in an RIPA buffer (150 mM NaCl, 50 mM Tris-base, 5 mM EDTA, 1% NP-40, and 0.25% deoxycholate; pH 7.4). Protein concentrations were determined using the BCA protein assay kit (Pierce, Rockford, Ill., USA). Lysate was incubated for 2 h at 4[…] with gentle rotation with rabbit polyclonal antibodies for human EGFR, CCN2, or Src immobilized onto protein A—sepharose beads (Santa Cruz Biotechnology, Santa Cruz, Calif., USA). Beads were washed twice with an IP buffer (137 mM NaCl, 2.7 mM KCl, 1 mM MgCl2, 1 mM CaCl2, 1% NP-40, 10% glycerol, 1 mg/ml bovine serum albumin, and 20 mM Tris; pH 8.0), boiled in a sodium dodecyl sulfate-polyacrylamide gel electrophoresis (SDS-PAGE) sample buffer, and centrifuged (12000×g, 4° C. for 15 min).
The recombinant proteins rCCN2 (BioVendor Com. Heidelberg, Germany), rEGFR, and rEGF (R&D Techne Corporation) ([…]) were added in binding buffer (50 mM sodium phosphate, pH 7.5, 500 mM NaCl, and I% Nonidet P-40) and incubated with gentle rotation at 4° C. for 2 h. Thereafter, crosslinks were reversed by boiling in an SDS-PAGE sample buffer (containing 0.1M dithiothreitol (DTT)) before loading on SDS-PAGE gels for immunoblotting analysis. […]

[2] = target: T2, Epidermal growth factor receptor (EGFR) (human, UniProt P00533 25-1210); experiment: FACS on CL1-5 and A549 cells (legend of FIG. 2B)
T2 construct: whole, on cells; FACS and immunoprecipitation used EGFR in or on cells
Protocol: After washing, cells were stained with an FITC-labelled goat anti-rabbit secondary antibody (Santa Cruz Biotechnology) for 30 min in the dark. Analysis was then conducted with an FACS Calibur cytometer (Collaborative Biomedical, BD Biosciences).

[3] = test system: mutated-type EGFR (L858R and T790M); experiment: Western blot of EGFR expression, H1975; assay type: cell-based, human; details: 0 to 4 hours, FIG. 7
Protocol: as §1
(§2) First, the effect of rCCN2 on the wild-type EGFR […] lung adenocarcinoma cell line, the mutated-type EGFR H1299 lung adenocarcinoma cell line, and the mutated-type EGFR H1975 lung adenocarcinoma cell line was observed by western blot analysis, the results shown in FIG. 7(Cell lysates of H1299 transfectants or H1975 cells were immunoblotted with anti-EGFR).

wild-type EGFR = experiment: Western blot of EGFR expression, H1299 wild-type EGFR; assay type: cell-based, human; details: H1299 lung adenocarcinoma cell lines (wild-type EGFR); 0 minutes to 4 hours; FIG. 7
Protocol: as §1, §2

physical association between CCN2 and EGFR (EGFR): there is a physically association
binding result [2]: binds
B1: Connective tissue growth factor (CCN2), wild-type full length (ligand, human, UniProt P29279 27-349, looked up)
chain: QNCSGPCRCPDEPAPRCPAGVSLVLDGCGCCRVCAKQLGELCTERDPCDPHKGLFCHFGSPANRKIGVCTAKDGAPCIFGGTVYRSGESFQSSCKYQCTCLDGAVGCMPLCSMDVRLPSPDCPFPRRVKLPGKCCEEWVCDEPKDQTVVGPALAAYRLEDTFGPDPTMIRANCLVQTTEWSACSKTCGMGISTRVTNDNASCRLEKQSRLCMVRPCEADLEENIKKGKKCIRTPKISKPIKFELSGCTSMKTYRAKFCGVCTDGRCCTPHRTTTLPVEFKCPDGEVMKKNMMFIKTCACHYNCPGDNDIFESLYYRKMYGDMA
notes: also called Recombinant CCN2; exogenous CCN2
DAPK expression (DAPK; CL1-5, A549 and CL1-0/siCCN2, increasing time 0 minutes to 12 hours, FIG. 6B): promote DAPK expression
DAPK expression (DAPK; CL1-5, increasing dose (0 μm, 1μg, 3 μg), FIG. 6C): promote DAPK expression
anoikis in vivo [1]: clearly appeared anoikis
formation of EGFR/c-Cbl complex (EGFR/c-Cbl complex): gradually increase the formation of EGFR/c-Cbl complex
expression of EGFR [3]: inhibit the expression of EGFR more significantly
expression of EGFR (wild-type EGFR): inhibit the expression of EGFR more significantly
